Paper PMC9205196

How the values were obtained:
FGFR1, biotinylated = FGFR1, biotinylated (UniProt P11362); test: AlphaScreen or HTRF
[1] = target: Recombinant human FGF2 (fibroblast growth factor-2), biotinylated (human); test: AlphaScreen or HTRF
[2] = target: Vitronectin (VN), biotinylated (UniProt P04004); test: AlphaScreen or HTRF
[3] = target: SDC1_(37): deglycosylated murine syndecan-1 ectodomain with p-propargyltyrosine at residue 37 (mouse) (UniProt P18828); test: ELISA
[4] = target: SDC1_(37HEP): murine syndecan-1 ectodomain with heparin conjugated at residue 37 (mouse) (UniProt P18828); test: ELISA
[5] = target: SDC1_(47HEP): murine syndecan-1 ectodomain with heparin conjugated at residue 47 (mouse) (UniProt P18828); test: ELISA
[6] = target: SDC1_(47HS): murine syndecan-1 ectodomain with heparan sulfate conjugated at residue 47 (mouse) (UniProt P18828); test: ELISA

| EC50 (FGFR1, biotinylated) [nM] | EC50 of ternary complex formation with soluble non-tagged FGF2 (FGFR1, biotinylated) [nM] | EC50 [1] [nM] | EC50 [2] [nM] | EC50 [3] [nM] | EC50 [4] [nM] | EC50 [5] [nM] | EC50 [6] [nM] | Substance |
| --- | --- | --- | --- | --- | --- | --- | --- | --- |
| 0.2 | 0.007 | 0.3 | – | – | – | – | – | SDC1_(47HEP): murine syndecan-1 ectodomain with heparin conjugated at residue 47 (from UniProt P18828 23-255) (domain or fragment) |
| 0.3 | 0.007 | 0.4 | 1 | – | – | – | – | SDC1_(37HEP): murine syndecan-1 ectodomain with heparin conjugated at residue 37 (from UniProt P18828 23-255) (domain or fragment) |
| > 20 | > 20 | > 100 | > 100 | – | – | – | – | SDC1_(37): deglycosylated murine syndecan-1 ectodomain with p-propargyltyrosine at residue 37 (from UniProt P18828 23-255) (domain or fragment) |
| – | – | – | – | 100 | 10 | 5 | 40 | Recombinant human αvβ3 integrin (from UniProt P06756-1 31-992; P05106 27-718) (complex) |
